Test results published in patent publication US20240076343A1 (CEPHALON, published 2024).
Substitutions are numbered along the chain they refer to.

B1: 2H7-hIgG4-LE (antibody)
heavy: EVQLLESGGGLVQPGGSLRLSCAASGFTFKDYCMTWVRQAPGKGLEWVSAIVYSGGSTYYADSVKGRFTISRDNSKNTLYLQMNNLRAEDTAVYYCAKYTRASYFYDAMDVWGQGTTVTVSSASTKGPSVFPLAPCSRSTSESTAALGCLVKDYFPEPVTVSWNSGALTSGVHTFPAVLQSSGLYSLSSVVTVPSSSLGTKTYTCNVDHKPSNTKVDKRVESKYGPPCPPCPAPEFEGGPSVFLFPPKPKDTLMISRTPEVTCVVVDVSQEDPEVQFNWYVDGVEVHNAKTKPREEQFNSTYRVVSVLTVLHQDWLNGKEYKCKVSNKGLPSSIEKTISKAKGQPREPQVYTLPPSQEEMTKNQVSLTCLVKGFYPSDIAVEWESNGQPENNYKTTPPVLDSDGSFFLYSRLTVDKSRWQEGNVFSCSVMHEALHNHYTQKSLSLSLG
light: EIVLTQSPGTLSLSPGERATLSCRASQSIGKSFLAWYQQKPGQAPRLLIYDASTRAADIPARFSGSGSGTDFTLTISSLEPEDFAVYYCQQYYDWPPLSFGGGTKVEIKRTVAAPSVFIFPPSDEQLKSGTASVVCLLNNFYPREAKVQWKVDNALQSGNSQESVTEQDSKDSTYSLSSTLTLSKADYEKHKVYACEVTHQGLSSPVTKSFNRGEC
B2: 2H7-hIgG4-LAGA (antibody)
heavy: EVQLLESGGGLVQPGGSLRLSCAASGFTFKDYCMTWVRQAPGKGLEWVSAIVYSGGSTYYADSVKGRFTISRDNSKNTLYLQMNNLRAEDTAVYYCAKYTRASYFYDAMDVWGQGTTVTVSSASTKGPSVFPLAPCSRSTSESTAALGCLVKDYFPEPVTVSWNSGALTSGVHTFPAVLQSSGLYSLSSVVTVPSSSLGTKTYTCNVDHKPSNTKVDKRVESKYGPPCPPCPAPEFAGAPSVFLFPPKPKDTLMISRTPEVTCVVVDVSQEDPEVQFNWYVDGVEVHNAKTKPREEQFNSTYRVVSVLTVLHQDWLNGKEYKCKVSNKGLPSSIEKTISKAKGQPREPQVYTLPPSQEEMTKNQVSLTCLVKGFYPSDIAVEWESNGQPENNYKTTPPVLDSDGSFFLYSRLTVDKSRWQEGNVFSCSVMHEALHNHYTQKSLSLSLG
light: B1 light
B3: Abz1mod-hIgG4 (antibody, V domains shown)
VH: QVQLVQSGSELKKPGASVKVSCKASGYTFTSYAMHWVRQAPGQGLEWMGYISPFTGRATYAQGFTGRFVFSLDTSVSTAYLQISSLKAEDTAVYYCARDYDYRYYYAMDYWGQGTTVTVSS
VL: EIVLTQSPDFQSVTPKEKVTITCRASQSIPPQFLHWYQQKPDQSPKLLIKAASQRASGVPSRFSGSGSGTDFTLTINSLEAEDAATYYCHQFHSSPLTFGGGTKLEIKR
B4: A2-hIgG4 (antibody, V domains shown)
VH: DVQLVESGGGLVQPGGSLRLSCAASGFTFDISAMSWVRQAPGKGLEWVSTISGSAYSTYYADSVKGRFTISRDNSKSTLYLQMNSLRAEDTAVYYCAREIFSDYWGLGTLVTVSS
VL: QSVLTQPPSASGTPGQRVTISCSGSTSNIGRESVYWYQQLPGTAPKLLIYSNVQRPSGAPNRFSGSKSGTSASLAISGLQSEDEADYYCGTWDDSLNGWVFGGGTKLTVLG
B5: D12-hIgG4 (antibody, V domains shown)
VH: B4 VH
VL: B4 VL with S25N, A59V, N61D
B6: OMC.1.B6-hIgG4 (antibody, V domains shown)
VH: EVQLLESGGGLVQPGGSLRLSCAASGFTFSSNYMSWVRQAPGKGLEWVSAISSSGGTIFYADSVKGRFTISRDNSKNTLYLQMNSLRAEDTAVYYCAKHKWNAVYYDGMDVWGQGTTVTVSS
VL: QSVLTQPPSASGTPGQRVTISCSGSNSNIGRNLVNWYQQLPGTAPKLLIYTIDQRPSGVPDRFSGSKSGTSASLVISGLQSEDEADYYCAAWDGSLNAWVFGGGTKLTVLG
B7: OMC.1.D6-hIgG4 (antibody, V domains shown)
VH: B6 VH with S31D, N32Y, T69I, A103D, G108A
VL: B6 VL with I52V, V75A, Q80A, G94S, A98S
B8: OMC.2.C6-hIgG4 (antibody, V domains shown)
VH: EVQLLESGGGLVQPGGSLRLSCTASGFTFSSYEMQWVRQAPGKGLEWVLGITSSSSHIFYADSVKGRFTVSRDNSKNTLYLQMNSLRAEDTAVYYCTKDLNSYYGLDVWGQGTTVTVSS
VL: QSVMTQPPSASGTPGQRVTISCSGSTSNLGNNYVSWYQHLPGTAPKLLIYGNDQRPSGVPDRFSGSKSGTSASLAISGLQSDDEADYYCSSWDASLNVWVFGGGTKLTVLG
B9: OMC476pG10-hIgG4 (antibody, V domains shown)
VH: DVQLVESGGGVVRPGGSLRLSCAASGFTFSIYAMSWVRQAPGEGLEWVSHISASGGSTYYADSVKGRFAISRDNSKNTLYLQMNSLRAEDTAVYYCTTNLGSDYWGLGTLVTVSS
VL: QSVLTQPPSASGTPGQRVTISCSGSYSDIGTNYVYWYQQLPGTAPKLLIFATDRRPSGVPDRFSGSKSGTSASLAISGLQSEDEADYYCGTWDDSLNVWVFGGGTKLTVLG
B10: OMC476pH10-hIgG4 (antibody, V domains shown)
VH: B9 VH with M34V
VL: B9 VL
B11: OMC476pE4-hIgG4 (antibody, V domains shown)
VH: DVQLVESGGGVVRPGESLRLSCAASGFTFSTDAMGWVRQAPGEGLEWVSLISGSGYSTYYADSVKGRFTISRDNSKNTLYLQMNSLTAEDTAVYYCAKNSLAFFDYWGLGTLVTVSS
VL: B4 VL with S25G, T26S, Y35N, N52T, V53D, Q54R, A59V, N61D, D94N, S95D
B12: G12-hIgG4 (antibody, V domains shown)
VH: DSLVESGGGLVQPGGSLRLSCAASGFTFDISAMSWVRQAPGKGLEWVSTISGSAYSTYYADSVKGRFTISRDNSKSTLYLQMNSLRAEDTAVYYCAREIFSDYWGLGTLVTVSS
VL: B4 VL with S51L, V53S, A59V, N61D, E84V
B13: Anti-PD-1 clone J110 hIgG1 (antibody, V domains shown)
VH: DVQLQESGPGLVKPSQSLSLTCTVTGHSITSDYAWNWIRQFPGDKLEWMGYISYSGYTTYNPSLKSRVSITRDTSKNQFFLQLNSVTTEDTATYFCARDLDYGPWFAYWGQGTLVTVSA
VL: DIQMTQSPASLSASVGETVTLTCRASENIHNYLAWYQQKQGKSPQLLVYNVKTLADGVPSRFSGSGSGTQYSLKINSLQPEDFGSYYCQHFWSSPWTFGGGTKVEIKR
B14: 2A3.H7-hIgG4 (antibody, V domains shown)
VH: EVQLLESGGGLVQPGGSLRLSCAASGFTFKDYCMTWVRQAPGKGLEWVSAIVYSGGSTYYADSVKGRFTISRDNSKNTLYLQMNNLRAEDTAVYYCAKYTRASYFYDAMDVWGQGTTVTVSS
VL: EIVLTQSPGTLSLSPGERATLSCRASQSIGRSFLAWYQQKPGQAPRLLIYDASTRAADIPARFSGSGSGTDFTLTISSLEPEDFAVYYCQQYYDWPPLSFGGGTKVEIKR
B15: 1D5-hIgG4 (antibody, V domains shown)
VH: B14 VH with A23V, A24G, T28N, N85S, A102G
VL: B14 VL with A57T, A61D, D71E, E80Q, P81S, S99T
B16: 1H9-hIgG4 (antibody, V domains shown)
VH: B14 VH with A23V, A24G, T28N, F29L, N85S, A102G
VL: B14 VL with A61D, S77N, S78R, S99T
B17: OMC.1.B6-hIgG4 (antibody, V domains shown)
VH: B6 VH
VL: B6 VL
B18: OMC.1.D6-hIgG4 (antibody, V domains shown)
VH: B6 VH with S31D, N32Y, T69I, A103D, G108A
VL: B6 VL with I52V, V75A, Q80A, G94S, A98S
B19: OMC.2.C6-hIgG4 (antibody, V domains shown)
VH: B8 VH
VL: B8 VL
B20: C51E6-5-hIgG4 (antibody, V domains shown)
VH: B3 VH with T28S, F29L, T30Y, S31G, Y32T, A33S
VL: B3 VL with R24T, Q27E, I29V, K50Y, A52S, S53R, Q54E, S94R
B21: OMC.1.B6-hIgG4 (antibody, V domains shown)
VH: B6 VH
VL: B6 VL
B22: OMC.1.D6-hIgG4 (antibody, V domains shown)
VH: B6 VH with S31D, N32Y, T69I, A103D, G108A
VL: B6 VL with I52V, V75A, Q80A, G94S, A98S

target: T1, recombinant His-tagged human PD-1 (Acro Biosystems) (human, UniProt Q15116 25-167); test: SPR Carterra LSA;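 note: antibodies or fusion proteins amine-coupled on an HC30M chip, soluble His-tagged human or cynomolgus PD-1 titrated over them, non-regenerative kinetics, constants fitted from titration curves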
T1 construct: His-tagged; also called hPD-1
T1 sequence (Q15116 25-167 limits assumed): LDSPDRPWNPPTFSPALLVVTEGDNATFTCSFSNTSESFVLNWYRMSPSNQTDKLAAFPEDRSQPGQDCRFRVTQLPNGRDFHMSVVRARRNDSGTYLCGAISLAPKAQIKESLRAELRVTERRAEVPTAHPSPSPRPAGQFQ
Method: Surface plasmon resonance binding analysis was performed using a high-throughput SPR Carterra® LSA™ to determine binding affinities of anti-hPD-1 antibodies and anti-hPD-1-attenuated hIL-2 fusion proteins. Proteins were diluted to 2 or 10 μg/mL in 10 mM sodium acetate pH 4.5 containing 0.01% Tween-20 and coupled to a HC30M (Carterra Bio) chip using sulpho-N-hydroxysuccinimide/1-ethyl-3-(3-dimethylamino) propyl carbodiimide (sulpho-NHS/EDC) coupling chemistry and blocked with ethanolamine. A non-regenerative kinetic coupling process was used to determine binding kinetics to commercially sourced recombinant His-tagged human PD-1 and His-tagged cynomolgus PD-1 (Acro Biosystems).
The association constants (kₐ), dissociation constants (kd), and equilibrium constants (KD) of various anti-hPD-1 antibodies and anti-hPD-1 antibody-attenuated hIL-2 fusion proteins binding to recombinant human or cynomolgus PD-1 proteins was determined from the titration curves and the Carterra Kinetics software. The maximal feasible SPR signal generated (Rₘₐₓ) and residual standard deviation (Res SD) was also calculated.

Row | Binder | Kd [nM] | koff [s⁻¹] | kon [M⁻¹ s⁻¹]
1 | B1 | 3.1 | 0.00082 | 260000
2 | B2 | 5.3 | 0.00091 | 170000
3 | B3 | 0.426 | 6e-05 | 140000
4 | B4 | 36 | 0.0013 | 37000
5 | B5 | 8.1 | 0.00046 | 57000
6 | B6 | 52 | 0.004 | 77000
7 | B7 | 42 | 0.0017 | 41000
8 | B8 | 12 | 0.00066 | 57000
9 | B9 | 44 | 0.0041 | 93000
10 | B10 | 64 | 0.0065 | 100000
11 | B11 | 11 | 0.00088 | 79000
12 | B12 | 50 | 0.0026 | 53000
13 | B13 | 10 | 0.001 | 100000

target: T2, recombinant His-tagged cynomolgus PD-1 (Acro Biosystems) (cynomolgus, UniProt B0LAJ3 25-170); test: SPR Carterra LSA;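 note: antibodies or fusion proteins amine-coupled on an HC30M chip, soluble His-tagged human or cynomolgus PD-1 titrated over them, non-regenerative kinetics, constants fitted from titration curves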
T2 construct: His-tagged; also called Cyno PD-1; not shown: His tag (and any linker) of the Acro Biosystems product
T2 sequence (B0LAJ3 entry or part of it limits assumed): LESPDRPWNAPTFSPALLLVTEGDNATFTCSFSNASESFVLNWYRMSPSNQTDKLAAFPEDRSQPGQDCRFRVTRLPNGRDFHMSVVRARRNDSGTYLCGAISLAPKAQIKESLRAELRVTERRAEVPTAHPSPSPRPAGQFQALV

Row | Binder | Kd [nM] | koff [s⁻¹] | kon [M⁻¹ s⁻¹]
14 | B1 | 7.1 | 0.001 | 140000
15 | B2 | 12 | 0.0011 | 91000
16 | B3 | 3.7 | 0.00062 | 170000
17 | B4 | 589 | 0.04 | 68000
18 | B5 | 272 | 0.016 | 59000
19 | B6 | 51 | 0.0044 | 88000
20 | B7 | 694 | 0.04 | 58000
21 | B8 | 13 | 0.00074 | 55000
22 | B9 | 487 | 0.06 | 120000
23 | B10 | 480 | 0.059 | 120000
24 | B11 | 331 | 0.035 | 100000
25 | B12 | 754 | 0.065 | 86000
26 | B13 | 1200 | 0.05 | 41000

target: human PD-1 on Jurkat Effector cells of the PD-1/PD-L1 blockade bioassay (Promega, Cat #J1255) (human, UniProt Q15116 25-288); test: cell-based or functional assay
Sequence (Q15116 25-288): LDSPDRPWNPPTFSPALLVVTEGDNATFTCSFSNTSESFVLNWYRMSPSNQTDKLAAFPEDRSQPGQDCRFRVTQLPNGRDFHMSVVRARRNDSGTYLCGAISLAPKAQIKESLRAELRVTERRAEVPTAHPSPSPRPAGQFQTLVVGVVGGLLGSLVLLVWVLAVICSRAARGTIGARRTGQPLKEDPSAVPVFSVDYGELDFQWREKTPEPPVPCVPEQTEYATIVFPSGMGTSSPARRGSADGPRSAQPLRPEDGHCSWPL

Row | Binder | luminescence (RLU), PD-1/PD-L1 blockade bioassay [RLU]
27 | B14 | ~3000
28 | B15 | ~3000
29 | B16 | ~3000
30 | B17 | ~3000
31 | B18 | ~3000
32 | B19 | ~3000

target: T3, human PD-1 on Jurkat cells (Jurkat+hPD-1) (human, UniProt Q15116 21-185); test: flow cytometry on Jurkat cells expressing hPD-1
T3 construct: extracellular domain and a portion of the transmembrane domain, stably expressed on Jurkat cells
T3 sequence (Q15116 21-185 limits assumed): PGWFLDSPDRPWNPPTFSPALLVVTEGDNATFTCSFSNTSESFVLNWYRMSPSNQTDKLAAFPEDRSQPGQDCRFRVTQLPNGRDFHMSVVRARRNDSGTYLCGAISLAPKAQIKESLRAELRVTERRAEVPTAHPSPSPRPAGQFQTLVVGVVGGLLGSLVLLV
Method: EC₅₀ values were calculated from the geometric mean fluorescent intensity (gMFI) across the titrated concentrations using GraphPad Prism 7 software.

Row | Binder | EC50 [nM]
33 | B20 | 2.05
34 | B21 | 7.42
35 | B22 | 16
